± gives the uncertainty stated by the source.
Test: self-splicing fitness, log relative to wild type (ln ratio); higher = more splicing; Tetrahymena group I intron in knt gene, E. coli kanamycin selection, DiMSum; sequences stand for … in CUCUCU…GGAGGGAAAAGUUAUCAGGCAUGCACCUGGUAGCUAGUCUUUAAACCAAUAGAUUGCAUCGGUUUAAAAGGCAAGACCGUCAAAUUGCGGGAAAGGGGUCAACAGCCGUUCAGUACCAAGUCUCAGGGGAAACUUUGAGAUGGCCUUGCAAAGGGUAUGGUAAUAAGCUGACGGACAUGGUCCUAACCACGCAGCCAAGUCCUAAGUCAACAGAUCUUCUGUUGAUAUGGAUGCAGUUCACAGACUAAAUGUCGGUCGGGGAAGAUGUAUUCUUCUCAUAAGAUAUAGUCGGACCUCUCCUUAAUGGGAGCUAGCGGAUGAAGUGAUGCAACACUGGAGCCGCUGGGAACUAAUUUGUAUGCGAAAGUAUAUUGAUUAGUUUUGGAGUACUCGUGGUCG
How it was run: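 A randomised library covering all eight P1ex-region intron nucleotides was built with the intron in the knt kanamycin-resistance gene on pET-22b(+) and held in E. coli BL21(DE3). Cells were grown overnight at 37°C or 30°C on LB agar, with or without 25 μg/mL kanamycin, plus 100 μg/mL carbenicillin, 50 μM IPTG and 0.2% rhamnose, and pooled colonies were amplicon-sequenced on an Illumina HiSeq 2500. DiMSum fitness is the error-weighted combination of wild-type-normalised replicate fold changes, kanamycin versus none.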

Row | Sequence | self-splicing fitness (ln) (30 °C) | self-splicing fitness (ln) (37 °C)
1 | CUCCAGCAAUAUUACGCGAA | -3.06 ± 0.14 | -1.77 ± 0.16
2 | ACACAGCAAUAUUACGCUCC | -1.47 ± 0.078 | -0.566 ± 0.1
3 | CUGCAGCAAUAUUACGCGAA | -3.31 ± 0.33 | -2.52 ± 0.27
4 | GAACAGCAAUAUUACGCUCU | -1.37 ± 0.17 | -0.466 ± 0.15
5 | CUUUAGCAAUAUUACGGUCA | -2.41 ± 0.25 | -3.28 ± 0.35
6 | CGUCAGCAAUAUUACGCUAC | -3.74 ± 0.43 | -0.956 ± 0.23
7 | ACACAGCAAUAUUACGACUU | -0.131 ± 0.043 | 0.0165 ± 0.056
8 | CAGGAGCAAUAUUACGGGAC | -2.88 ± 0.25 | -3.24 ± 0.29
9 | GCGAAGCAAUAUUACGGACG | -0.0597 ± 0.13 | -0.969 ± 0.2
10 | GUGGAGCAAUAUUACGGGGA | -3.12 ± 0.44 | -2.65 ± 0.4
11 | UGUGAGCAAUAUUACGUUGU | -3.15 ± 0.25 | -3.13 ± 0.47
12 | ACCUAGCAAUAUUACGUCAU | -2.11 ± 0.12 | -1.63 ± 0.12
13 | AAUGAGCAAUAUUACGCAAC | -2.46 ± 0.22 | -2.51 ± 0.44
14 | CUGCAGCAAUAUUACGACCC | -3.76 ± 0.36 | -1.05 ± 0.48
15 | AGGAAGCAAUAUUACGCUUA | -2.41 ± 0.2 | -0.908 ± 0.17
16 | AGAUAGCAAUAUUACGCGAA | -3.1 ± 0.28 | -0.447 ± 0.17
17 | UUCCAGCAAUAUUACGCCUC | -1.84 ± 0.21 | -0.711 ± 0.29
18 | CUGUAGCAAUAUUACGUAGU | -4.78 ± 0.36 | -2.65 ± 0.35
19 | CUUGAGCAAUAUUACGAAGU | -3.67 ± 0.33 | -3.38 ± 0.35
20 | AGUGAGCAAUAUUACGGUCA | -2.16 ± 0.19 | -0.354 ± 0.19
21 | GCGUAGCAAUAUUACGCAUU | -2.88 ± 0.2 | -2.58 ± 0.27
22 | GGUGAGCAAUAUUACGGCGC | -0.434 ± 0.13 | -0.198 ± 0.19
23 | UGGAAGCAAUAUUACGUGGC | -3.41 ± 0.25 | -2.71 ± 0.33
24 | CUCAAGCAAUAUUACGGACU | -2.42 ± 0.15 | -1.36 ± 0.2

Row | Sequence | self-splicing fitness (ln) (30 °C) | self-splicing fitness (ln) (37 °C)
25 | CUGGAGCAAUAUUACGUUAU | -4.35 ± 0.31 | -2.82 ± 0.26
26 | GAACAGCAAUAUUACGUUAG | -0.954 ± 0.047 | -0.969 ± 0.067
27 | CUUUAGCAAUAUUACGAUCG | 0.191 ± 0.17 | 0.476 ± 0.22
28 | UCCAAGCAAUAUUACGGUGU | -0.788 ± 0.047 | 0.18 ± 0.066
29 | UGUCAGCAAUAUUACGACGG | -1.06 ± 0.076 | -0.98 ± 0.092
30 | ACGUAGCAAUAUUACGAGGA | -2.78 ± 0.33 | -2.75 ± 0.38
31 | UCUUAGCAAUAUUACGCCUA | – | -2.71 ± 0.41
32 | CAUAAGCAAUAUUACGACGC | -2.7 ± 0.25 | -0.823 ± 0.19
33 | CUUUAGCAAUAUUACGAUCU | -3.2 ± 0.36 | -2.48 ± 0.45
34 | CGGAAGCAAUAUUACGGUGA | -1.64 ± 0.16 | -2.07 ± 0.22
35 | AGCGAGCAAUAUUACGGGUG | -2.75 ± 0.24 | -1.21 ± 0.21
36 | UGUCAGCAAUAUUACGAUCC | -1.48 ± 0.086 | -0.717 ± 0.089
37 | UUCCAGCAAUAUUACGUCCA | -1.05 ± 0.12 | -0.679 ± 0.14
38 | GGUUAGCAAUAUUACGAGUG | -2.59 ± 0.35 | -1.39 ± 0.19
39 | AUUCAGCAAUAUUACGGCAG | -1.14 ± 0.11 | -0.688 ± 0.14
40 | GUCCAGCAAUAUUACGUCGG | -3.83 ± 0.41 | -1.39 ± 0.2
41 | CGUAAGCAAUAUUACGGAUU | -3.61 ± 0.3 | -1.49 ± 0.23
42 | UACCAGCAAUAUUACGCCUA | 0.00559 ± 0.047 | 0.659 ± 0.065
43 | GUUCAGCAAUAUUACGGAUA | -0.566 ± 0.13 | -0.413 ± 0.1
44 | ACACAGCAAUAUUACGCCAA | -2.36 ± 0.11 | -2.54 ± 0.14
45 | CCGCAGCAAUAUUACGUGCG | -4.67 ± 0.22 | -2.86 ± 0.15
46 | UUGAAGCAAUAUUACGGAGC | -2.81 ± 0.21 | -2.5 ± 0.41
47 | UUGAAGCAAUAUUACGUACC | -3.61 ± 0.41 | -1.07 ± 0.35
48 | GACCAGCAAUAUUACGGGCC | -3.69 ± 0.15 | -2.26 ± 0.21

Row | Sequence | self-splicing fitness (ln) (30 °C) | self-splicing fitness (ln) (37 °C)
49 | UUGUAGCAAUAUUACGCCAG | -0.515 ± 0.14 | -0.137 ± 0.2
50 | GGUUAGCAAUAUUACGUCGA | -1.43 ± 0.14 | -0.492 ± 0.14
51 | CCCUAGCAAUAUUACGCAAG | -3.65 ± 0.28 | -2.06 ± 0.23
52 | UUGAAGCAAUAUUACGCAUU | -3.34 ± 0.23 | -3.18 ± 0.25
53 | AGGUAGCAAUAUUACGUGCG | -0.955 ± 0.014 | -0.358 ± 0.033
54 | UUAAAGCAAUAUUACGUUUC | -3.92 ± 0.39 | -1.18 ± 0.31
55 | CGCAAGCAAUAUUACGGGCA | 0.0951 ± 0.064 | -0.199 ± 0.075
56 | GCUGAGCAAUAUUACGAUUU | -1.04 ± 0.08 | -0.288 ± 0.096
57 | GACGAGCAAUAUUACGUGCC | -1.56 ± 0.14 | -1.97 ± 0.26
58 | CCUGAGCAAUAUUACGACGG | -3.06 ± 0.25 | -2.59 ± 0.48
59 | UGGCAGCAAUAUUACGAACA | -0.346 ± 0.11 | 0.139 ± 0.13
60 | UUAAAGCAAUAUUACGAGUA | -1.08 ± 0.096 | -0.715 ± 0.11
61 | AGACAGCAAUAUUACGACGA | -1.29 ± 0.13 | -0.547 ± 0.12
62 | GUGAAGCAAUAUUACGACGC | 0.482 ± 0.12 | 0.847 ± 0.17
63 | AUUUAGCAAUAUUACGGUUU | -1.02 ± 0.096 | -0.0857 ± 0.12
64 | CCAUAGCAAUAUUACGGAUU | -3.49 ± 0.19 | -2.96 ± 0.24
65 | AGUAAGCAAUAUUACGUGAA | -3.24 ± 0.15 | -1.68 ± 0.13
66 | CACCAGCAAUAUUACGCGAC | -4.31 ± 0.2 | -2.89 ± 0.23
67 | UGCUAGCAAUAUUACGAGUC | -3.43 ± 0.26 | -2.5 ± 0.28
68 | AAUGAGCAAUAUUACGGCAU | -1.55 ± 0.12 | -0.695 ± 0.12
69 | ACGAAGCAAUAUUACGCGUG | -1.13 ± 0.051 | -0.442 ± 0.074
70 | UUGGAGCAAUAUUACGUAUG | -3.25 ± 0.36 | -1.36 ± 0.37
71 | GUUAAGCAAUAUUACGUCUG | -1.38 ± 0.098 | -1.3 ± 0.13
72 | ACAGAGCAAUAUUACGACAG | -3.72 ± 0.31 | -1.95 ± 0.2

Row | Sequence | self-splicing fitness (ln) (30 °C) | self-splicing fitness (ln) (37 °C)
73 | UUUUAGCAAUAUUACGUGAU | -2.76 ± 0.31 | -2.19 ± 0.32
74 | CCUUAGCAAUAUUACGCUAU | -3.14 ± 0.14 | -2.64 ± 0.18
75 | AGAAAGCAAUAUUACGGGAU | -1.14 ± 0.14 | -1.04 ± 0.12
76 | GACGAGCAAUAUUACGAAAC | -4.29 ± 0.3 | -3.14 ± 0.28
77 | GAUCAGCAAUAUUACGACAG | -3.24 ± 0.23 | -1.49 ± 0.28
78 | GGUAAGCAAUAUUACGGCUU | -0.104 ± 0.075 | 0.352 ± 0.11
79 | AAUCAGCAAUAUUACGGAAU | -0.646 ± 0.065 | -0.35 ± 0.075
80 | AAUGAGCAAUAUUACGAAUA | -3.37 ± 0.39 | -2 ± 0.32
81 | CACUAGCAAUAUUACGGUUG | -1.98 ± 0.087 | -1.38 ± 0.098
82 | GGGUAGCAAUAUUACGUACG | -0.676 ± 0.23 | -0.536 ± 0.29
83 | CGUGAGCAAUAUUACGUUAU | -4.44 ± 0.36 | -2.38 ± 0.18
84 | GAGUAGCAAUAUUACGCAGA | -3 ± 0.26 | -2.41 ± 0.31
85 | AGUCAGCAAUAUUACGCUGG | -3.87 ± 0.23 | -2.71 ± 0.23
86 | AGAAAGCAAUAUUACGCGGA | -2.26 ± 0.13 | -0.649 ± 0.13
87 | CCGUAGCAAUAUUACGUGUC | -3.6 ± 0.29 | -1.87 ± 0.32
88 | UUGCAGCAAUAUUACGUUUA | -1.31 ± 0.096 | -1.02 ± 0.088
89 | UCCUAGCAAUAUUACGACGC | -2.35 ± 0.17 | -2.02 ± 0.2
90 | UGAUAGCAAUAUUACGGUUU | -2.91 ± 0.097 | -1.38 ± 0.11
91 | GCGUAGCAAUAUUACGCUCU | -3 ± 0.46 | -1.59 ± 0.27
92 | AAGAAGCAAUAUUACGUCGA | -0.754 ± 0.097 | 0.0801 ± 0.14
93 | UAAGAGCAAUAUUACGGGUU | -3.51 ± 0.29 | -2.06 ± 0.31
94 | GAGGAGCAAUAUUACGAUCC | -1.49 ± 0.31 | -1.12 ± 0.27
95 | UUCGAGCAAUAUUACGUCCA | -2.49 ± 0.31 | -1.75 ± 0.44

Source: the supplement of paper PMC7877785
